According to the Human Domainome abundance scans (Beltran et al. 2025):

B1: POU domain, class 4, transcription factor 2, residues 256 to 327; numbered along this chain, Q12837 (parent)
chain: RDLEAFAERFKQRRIKLGVTQADVGSALANLKIPGVGSLSQSTICRFESLTLSHNNMIALKPILQAWLEEAE

Variants of: B1
Test: abundance fitness (aPCA) (normalised: wild type 0, dead -1); higher = more abundant; growth selection in yeast, the domain comes from the species named
Conditions: Homo sapiens

Abundance fitness: each site, then its substitutions
T51: D -0.295, C -0.077, S 0.018, V -0.367, P -1.08, H -0.232, M 0.077, G -0.181, L -0.256, K 0.264, A -0.035, W -0.78, E -0.059, Q -0.041, Y -0.567, R -0.111, F -0.414
L50: M -0.003, A 0.005, H -0.057, T -0.147, G 0.06, Y -0.478, D -0.196, C -0.029, R -0.077, F -0.088, N 0.161, E -0.322, I -0.361, S 0.012, K -0.128, W -0.791, P -0.867
Q41: K 0.054, V -0.187, W -0.06, S -0.044, F -0.335, I -0.275, T 0.077, R -0.061, D -0.058, L -0.289, H 0.089, G 0.041, E 0.111, P -0.046, C -0.37
I44: L -0.392, C -0.643, V -0.168, A -1, S -0.963, W -1.03, D -0.771, E -0.652, Y -0.019, K -0.065, P -0.923, M -0.87, R -0.973, F -0.913
N55: L -0.121, S 0.013, A 0.137, V -0.013, H -0.326, G -0.009, F -0.396, R -0.055, E -0.184, D -0.009, I -0.197, Q 0.073, K -0.016, T -0.024, W -0.403, M -0.253
V36: F -0.176, I 0.166, C -0.4, E -0.139, N -0.387, H -0.267, K -0.532, D -0.278, M -0.203, Y -0.047, Q -0.147, T -0.417, S -0.186, L 0.061, A -0.18, R -0.617
S49: P -0.537, W -0.485, G 0.055, L -0.297, M -0.492, I -1.03, F -0.651, K 0.069, D -0.106, E 0.134, C -0.245, N -0.065, T -0.035, R 0.032, H -0.587
S42: F -0.494, E 0.107, T -0.054, Q -0.084, R -0.085, G -0.11, P -0.381, N -0.28, K 0.068, W -0.359, H 0.085, I -0.272, C -0.325, V -0.113, L -0.152
S38: Q -0.051, C -0.092, V -0.159, H 0.104, Y 0.026, L -0.045, K -0.127, G -0.091, E -0.127, I -0.146, N 0.133, D -0.277, R -0.022, T -0.083, W -0.209, A -0.013
S40: D 0.016, M -0.723, C -0.131, E -0.15, Y -0.685, V -0.385, W -0.779, A -0.203, T 0.092, H -0.228, N -0.108, P -0.193, L -0.671, G 0.014, Q -0.293, R -0.312
C45: H 0.039, L -0.157, R -0.008, I -0.261, Y 0.26, G 0.02, N 0.091, S 0.065, T -0.161, F -0.041
